Data as given in patent US20230357422A1 (published 2023).
Where a chain is given by its changes, count along the chain named.

B1: Hu-A-NA-19-1 (Fc fusion)
chain: EVQLVESGGGLVKPGGSLRLSCAASGAIFRINTGAWYRQAPGKQRELVASLTTYGKTTYADFVKGRFTISRDDSKNTLYLQMNSLKTEDTAVYYCHIGPEPRYGYWGQGTLVTVSSTHTCPPCPAPEAAGGPSVFLFPPKPKDTLMISRTPEVTCVVVDVSHEDPEVKFNWYVDGVEVHNAKTKPREEQYNSTYRVVSVLTVLHQDWLNGKEYKCKVSNKALPAPIEKTISKAKGQPREPQVYTLPPSREEMTKNQVSLTCLVKGFYPSDIAVEWESNGQPENNYKTTPPVLDSDGSFFLYSKLTVDKSRWQQGNVFSCSVMHEALHNHYTQKSLSLSPG
notes: also called HZ-A-Na-19-1
B2: Hu-A-NA-19-2 (Fc fusion)
chain: B1 chain with Q44G, R45L
notes: also called HZ-A-Na-19-2
B3: GITR-his (receptor, human, UniProt Q9Y5U5 26-162, looked up)
chain: QRPTGGPGCGPGRLLLGTGTDARCCRVHTTRCCRDYPGEECCSEWDCMCVQPEFHCGDPCCTTCRHHPCPPGQGVQSQGKFSFGFQCIDCASGTFSGGHEGHCKPWTDCTQFGFLTVFPGNKTHNAVCVPGSPPAEP
notes: 'Human' heads the list '4-1BB-his, GITR-his, OX40-his, CD40-his' and is read as applying to all four; not shown: his tag
B4: OX40-his (receptor, human, UniProt P43489 29-216, looked up)
chain: LHCVGDTYPSNDRCCHECRPGNGMVSRCSRSQNTVCRPCGPGFYNDVVSSKPCKPCTWCNLRSGSERKQLCTATQDTVCRCRAGTQPLDSYKPGVDCAPCPPGHFSPGDNQACKPWTNCTLAGKHTLQPASNSSDAICEDRDPPATQPQETQGPPARPITVQPTEAWPRTSQGPSTRPVEVPGGRAVA
notes: 'Human' heads the list and is read as applying to all four proteins; not shown: his tag
B5: HZ-L-Yr-13&14-16-2 (Fc fusion)
chain: QVQLVESGGGVVQPGRSLRLSCAASGSTFSIVAMGWYRQAPGKGLELVASIITGDGDTNYADSVKGRFTISRDNSKNTMYLQMNSLRAEDTAVYYCYARTGYGSSWLMGHEYDYWGQGTQVTVSSTHTCPPCPAPEAAGGPSVFLFPPKPKDTLMISRTPEVTCVVVDVSHEDPEVKFNWYVDGVEVHNAKTKPREEQYNSTYRVVSVLTVLHQDWLNGKEYKCKVSNKALPAPIEKTISKAKGQPREPQVYTLPPSREEMTKNQVSLTCLVKGFYPSDIAVEWESNGQPENNYKTTPPVLDSDGSFFLYSKLTVDKSRWQQGNVFSCSVMHEALHNHYTQKSLSLSPG

Columns and labels:
[1] = target: T1, human 4-1BB on CHO cells (human, UniProt Q07011 24-255); assay: flow cytometry on CHO cells expressing human 4-1BB
T1 construct: whole, on cells; also called CHO-h4-1BB cells; human 4-1BB CHO-S cells
Procedure: CHO cells overexpressing human 4-1BB (CHO-h4-1BB cells) were generated by transfection of pCHO1.0 vector (purchased from Invitrogen) encoding human 4-1BB cDNA cloned into MCS (multiple cloning site). The cell density of the expanded CHO-h4-1BB cells was adjusted to 2×10⁶ cells/ml, added at 100 μl/well to a 96-well flow plate, and centrifuged for later use. The purified 4-1BB antibody was diluted with PBS by 3-fold dilution starting from 400 nM for a total of 12 points. The above-mentioned diluted sample was added at 100 μl/well to the above-mentioned 96-well flow plate with cells, incubated at 4° C. for 30 min, and washed twice with PBS. Goat F(ab′)2 anti-human IgG-Fc (PE) (purchased from Abcam) diluted 100 times with PBS was added at 100 μl/well, incubated at 4° C. for 30 min, and washed twice with PBS. The cells resuspended with PBS was added at 100 μl/well, and detected on CytoFlex (Bechman) flow cytometer, and the corresponding MFI was calculated.

[2] = target: HZ-L-Yr-13&14-16-1; assay: ELISA on coated his-tagged protein
Procedure: Human 4-1BB-his, GITR-his, OX40-his, CD40-his proteins (purchased from ACRO) were dissolved according to the instructions, diluted to 1 μg/ml with ELISA coating solution (purchased from Shanghai Sangon), coated on ELISA plate at 100 allowed to stand overnight at 4° C., and washed for 3 times with PBST, 5% BSA (purchased from Shanghai Sangon) was added at 200 μl/well to block for 1 hour at room temperature. The coating solution was discarded, 4-1BB antibody diluted with 1% BSA was added at 100 200 nM in three replicate wells, and incubated at room temperature for 2 hours. Washing was performed with PBST for 3 times, and goat anti-human IgG-Fc-HRP (purchased from abcam) diluted with 1% BSA was added at 100 μl/well, and incubated at room temperature for 1 hour. Washing was performed 3 times with PBST, ELISA chromogenic solution (purchased from Solarbio) was added at 100 μl/well to react at room temperature for 3 minutes, ELISA stop solution (purchased from Solarbio) was added at 50 and the absorbance value at 450 nm was read.

T1 sequence (Q07011 24-255): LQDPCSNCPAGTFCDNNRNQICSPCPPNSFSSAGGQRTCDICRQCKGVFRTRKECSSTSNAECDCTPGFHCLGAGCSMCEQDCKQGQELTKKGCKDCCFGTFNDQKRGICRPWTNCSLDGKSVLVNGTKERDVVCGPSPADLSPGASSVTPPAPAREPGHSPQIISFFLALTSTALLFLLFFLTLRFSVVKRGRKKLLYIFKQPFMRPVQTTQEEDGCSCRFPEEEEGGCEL

Binder	binding result [1]	binding result [2]
B1	binds	–
B2	binds	–
B3	–	no binding (tested: 200 nM)
B4	–	no binding (tested: 200 nM)
B5	binds	–
